According to patent US11339434B2, “Methods for determining gene functions” (The Regents of the University of California, priority 2016, dated 2022):

Assay: methylation of 6-mercaptopurine by peptide barcoded TPMT, LC-ESI-MS
Format: biochemical
Conditions: 1 mM 6-mercaptopurine, 37° C., approximately 24 hours
Description: A polynucleotide encoding a peptide barcoded human thiopurine methyl transferase (TPMT) was incubated for 3 hours at 37° C. in the PURExpress® cell-free transcription/translation system (New England Biolabs, Inc. (Ipswich, Mass.)) according to the manufacturer's protocol in the presence (+protease) or the absence (−protease) of the WELQut-protease. […] After cell-free transcription/translation of peptide barcoded thiopurine methyl transferase (TPMT), 1 mM 6-mercaptopurine and phosphate buffered saline (0.1×) were added with (+cofactor) or without (−cofactor) 3.2 mM of the cofactor S-adenosyl-methionine (SAM). After incubation at 37° C., […] for approximately 24 hours (no shaking), methylation of 6-mercaptopurine and the presence of peptide barcode were determined by liquid chromatography-electrospray ionization-mass spectrometry (LC-ESI-MS).

B1: TPMT: peptide barcoded human thiopurine methyl transferase produced by cell-free transcription/translation (protein, UniProt P51580 1-245, looked up)
Thiopurine S-methyltransferase: MDGTRTSLDIEEYSDTEVQKNQVLTLEEWQDKWVNGKTAFHQEQGHQLLKKHLDTFLKGKSGLRVFFPLCGKAVEMKWFADRGHSVVGVEISELGIQEFFTEQNLSYSEEPITEIPGTKVFKSSSGNISLYCCSIFDLPRTNIGKFDMIWDRGALVAINPGDRKCYADTMFSLLGKKFQYLLCVLSYDPTKHPGPPFYVPHAEIERLFGKICNIRCLEKVDAFEERHKSWGIDCLFEKLYLLTEK
modifications: peptide barcode
notes: peptide barcoded human thiopurine methyl transferase produced by cell-free transcription/translation
methylated 6-mercaptopurine detected by mass spectrometry (absence of cofactor S-adenosyl-methionine, absence of WELQut-protease): no methylated 6-mercaptopurine nor peptide barcode were detected
methylated 6-mercaptopurine detected by mass spectrometry (absence of cofactor S-adenosyl-methionine, presence of WELQut-protease): no methylated 6-mercaptopurine was detected
methylated 6-mercaptopurine detected by mass spectrometry (presence of cofactor S-adenosyl-methionine (3.2 mM) and WELQut-protease): methylated 6-mercaptopurine and the peptide barcode were detected
methylated 6-mercaptopurine detected by mass spectrometry (presence of cofactor S-adenosyl-methionine (3.2 mM), absence of WELQut-protease): methylated 6-mercaptopurine was detected
